Measurements reported in publication PMC6957217.

Target: E. coli bacteria
Assay: binding to whole E. coli cells in presence of purified E. coli B LPS
Settings: read off a plot

Substance: Phage T4 LTF needle (gp37; amino acids 799–1026), wild type (from UniProt P03744) G938A
- response (LPS 0.32 ng, parent: est. 32): 90 % Binding
- response (LPS 1.6 ng, parent: est. 47): 85 % Binding
- response (LPS 8 ng, parent: est. 62): 92 % Binding
- response (LPS 40 ng, parent: est. 87): 92 % Binding
- response (LPS 200 ng, parent: est. 130): 100 % Binding
- response (LPS 1000 ng, parent: est. 190): 110 % Binding
- response (LPS 5000 ng, parent: est. 230): 120 % Binding

Substance: Phage T4 LTF needle (gp37; amino acids 799–1026), wild type (from UniProt P03744) N937A
- response (LPS 0.32 ng, parent: est. 32): 90 % Binding
- response (LPS 1.6 ng, parent: est. 47): 92 % Binding
- response (LPS 8 ng, parent: est. 62): 94 % Binding
- response (LPS 40 ng, parent: est. 87): 98 % Binding
- response (LPS 200 ng, parent: est. 130): 110 % Binding
- response (LPS 1000 ng, parent: est. 190): 140 % Binding
- response (LPS 5000 ng, parent: est. 230): 150 % Binding
